Blank lines part the entries; values can stand above or below the binder they belong to.
Biological target: T1, C-terminal region of human LTBP-1 (human, UniProt Q14766 1347-1721)
T1 chain: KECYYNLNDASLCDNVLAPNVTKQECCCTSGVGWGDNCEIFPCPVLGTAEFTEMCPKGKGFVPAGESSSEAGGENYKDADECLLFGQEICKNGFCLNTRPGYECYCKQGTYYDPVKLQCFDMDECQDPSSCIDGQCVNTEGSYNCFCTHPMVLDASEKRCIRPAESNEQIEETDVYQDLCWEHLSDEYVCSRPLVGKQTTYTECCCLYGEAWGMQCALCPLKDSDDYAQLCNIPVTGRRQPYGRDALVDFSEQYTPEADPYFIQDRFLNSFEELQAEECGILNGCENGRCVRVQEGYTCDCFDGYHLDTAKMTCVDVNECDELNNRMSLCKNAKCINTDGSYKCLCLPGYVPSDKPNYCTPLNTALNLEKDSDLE
Assay: SPR

Kd: 50.1 nM
B1: recombinant human fibrillin-1 N-terminal fragment PF3 with the WMS deletion (domains TB1–PRR–EGF4) (domain or fragment)
chain: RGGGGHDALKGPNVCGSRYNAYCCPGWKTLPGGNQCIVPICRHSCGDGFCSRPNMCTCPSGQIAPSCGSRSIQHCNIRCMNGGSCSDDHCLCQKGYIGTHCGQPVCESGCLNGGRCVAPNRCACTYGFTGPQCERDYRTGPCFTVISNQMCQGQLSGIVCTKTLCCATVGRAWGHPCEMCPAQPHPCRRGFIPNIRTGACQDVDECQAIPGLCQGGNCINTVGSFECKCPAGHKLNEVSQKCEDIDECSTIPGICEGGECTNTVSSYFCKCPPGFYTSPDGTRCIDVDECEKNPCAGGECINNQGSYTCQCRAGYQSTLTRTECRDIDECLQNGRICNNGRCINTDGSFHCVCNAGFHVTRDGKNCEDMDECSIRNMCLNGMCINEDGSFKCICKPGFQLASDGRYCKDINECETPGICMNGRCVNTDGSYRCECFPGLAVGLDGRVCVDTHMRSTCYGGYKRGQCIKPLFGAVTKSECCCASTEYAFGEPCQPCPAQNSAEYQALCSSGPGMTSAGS
modifications: Calcium bound to the cbEGF domains; disulfide bonded. The PF3 end is not printed: it is taken as the end of TB2 (722), because the paper's fragment boundaries are at 330 and 723. The WMS deletion TB1-PRR-EGF4 is taken as 330-489 from domain limits. The N-terminus is assumed to be processed at 44/45.

Kd: 17.7 nM
B2: recombinant human fibrillin-1 N-terminal fragment PF3 (domain or fragment)
chain: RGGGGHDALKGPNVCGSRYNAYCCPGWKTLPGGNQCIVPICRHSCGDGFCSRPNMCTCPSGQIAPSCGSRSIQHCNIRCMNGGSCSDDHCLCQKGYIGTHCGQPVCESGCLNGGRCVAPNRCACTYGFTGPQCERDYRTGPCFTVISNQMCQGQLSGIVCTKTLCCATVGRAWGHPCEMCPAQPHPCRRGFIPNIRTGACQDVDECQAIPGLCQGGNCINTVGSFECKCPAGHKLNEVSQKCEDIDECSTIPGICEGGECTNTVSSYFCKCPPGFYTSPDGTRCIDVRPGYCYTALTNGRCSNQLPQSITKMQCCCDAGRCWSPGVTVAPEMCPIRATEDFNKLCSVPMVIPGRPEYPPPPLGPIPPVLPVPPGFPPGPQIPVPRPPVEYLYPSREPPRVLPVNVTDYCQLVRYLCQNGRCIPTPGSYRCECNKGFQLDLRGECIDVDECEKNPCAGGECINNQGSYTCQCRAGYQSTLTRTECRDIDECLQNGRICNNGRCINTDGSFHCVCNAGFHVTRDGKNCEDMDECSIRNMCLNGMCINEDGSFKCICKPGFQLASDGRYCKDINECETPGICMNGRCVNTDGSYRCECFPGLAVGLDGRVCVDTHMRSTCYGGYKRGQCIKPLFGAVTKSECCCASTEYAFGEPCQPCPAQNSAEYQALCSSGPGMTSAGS

From paper PMC10191836 (2023)
